Measured values as given in PMC12325586, “OFD1 inhibition induces BRCAness to create a therapeutic vulnerability to PARP inhibition in pancreatic cancer” (Nature Communications, 2025).
One block for each binder: values may come before it.

What was measured:
[1] = molecular target: T1, OFD1-Flag recombinant protein (UniProt O75665 1-1012); test: pull-down; in vitro peptide competition: 5 μg purified OFD1-Flag and E2F4-Strep II-HA with HA agarose; candidate peptides at 200 μM, validation at 0, 12.5, 25, 50, 100 and 200 μM; overnight at 4 °C; conditions: both partners purified
T1 construct: OFD1; also called recombinant OFD1; source: HEK293S, purified (Flag agarose, eluted with Flag peptide)
T1 sequence (looked up): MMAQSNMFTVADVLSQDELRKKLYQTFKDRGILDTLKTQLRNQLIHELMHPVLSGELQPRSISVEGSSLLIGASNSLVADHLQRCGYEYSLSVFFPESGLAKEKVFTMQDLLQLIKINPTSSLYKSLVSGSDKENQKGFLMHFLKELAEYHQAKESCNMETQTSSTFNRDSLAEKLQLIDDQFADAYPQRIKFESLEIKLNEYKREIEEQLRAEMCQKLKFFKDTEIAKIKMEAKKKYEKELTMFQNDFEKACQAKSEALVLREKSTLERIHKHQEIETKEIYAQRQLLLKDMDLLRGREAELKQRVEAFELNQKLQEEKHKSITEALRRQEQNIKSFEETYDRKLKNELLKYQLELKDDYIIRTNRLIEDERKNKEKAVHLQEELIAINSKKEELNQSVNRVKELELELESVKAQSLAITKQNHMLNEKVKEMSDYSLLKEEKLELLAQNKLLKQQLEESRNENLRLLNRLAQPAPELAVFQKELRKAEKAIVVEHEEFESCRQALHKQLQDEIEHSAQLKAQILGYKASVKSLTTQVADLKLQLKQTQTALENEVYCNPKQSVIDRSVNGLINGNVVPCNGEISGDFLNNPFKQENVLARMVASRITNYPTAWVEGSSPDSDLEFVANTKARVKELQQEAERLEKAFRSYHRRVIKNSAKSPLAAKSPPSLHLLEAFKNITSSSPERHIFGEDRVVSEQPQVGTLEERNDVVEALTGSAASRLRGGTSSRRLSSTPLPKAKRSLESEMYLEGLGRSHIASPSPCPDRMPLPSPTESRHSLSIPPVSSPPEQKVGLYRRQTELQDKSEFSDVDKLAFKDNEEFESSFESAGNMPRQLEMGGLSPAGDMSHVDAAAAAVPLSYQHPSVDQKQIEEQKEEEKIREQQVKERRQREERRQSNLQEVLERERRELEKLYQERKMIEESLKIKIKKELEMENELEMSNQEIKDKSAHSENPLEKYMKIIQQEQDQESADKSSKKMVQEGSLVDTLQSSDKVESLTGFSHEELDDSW

[2] = molecular target: T1, OFD1-Flag recombinant protein; test: pull-down; 20 μg purified OFD1-Flag and E2F4-Strep II-HA with Flag agarose or HA agarose in TAP lysis buffer, 3-4 h at 4 °C; conditions: both partners purified

binding result [1]: binds
B1: E2F4 peptide spanning residues 283-302 (peptide)
peptide: ELSSLPLGPTTLDTRPLQSS
notes: the TAT-conjugated form was used on cells only; source: synthetic peptide

binding result [2]: binds
B2: E2F4-Strep II-HA recombinant protein (natural protein)
chain: not shown
notes: E2F4; also called recombinant E2F4; source: HEK293S, purified (StrepTactin XT beads, then HA agarose, eluted with HA peptide)
